Data: patent EP4792886A2, “CNP PRODRUGS” (Ascendis Pharma Growth Disorders A/S, priority 2015, dated 2016)
Bridges are numbered along the chain shown (N, C = ends). Where no end group is shown, it is not given here. The star is where a group is joined. Hexanoyl(6-maleimido) = O=C1C=CC(=O)N1CCCCCC(=O)*

What was measured:
wild-type FVB male mice = test: Growth study in FVB mice after 5 weeks treatment, daily subcutaneous bolus injection or continuous subcutaneous infusion; format: in vivo; settings: 50 nmol/kg/d, d 35
Protocol: This study was performed in order to test the effect of daily subcutaneous bolus injection vs. continuous subcutaneous infusion of CNP-38 on animal growth. 21- to 22-days-old wild-type FVB male mice (n = 9/group) were given 50 nmol/kg/d CNP-38 or vehicle (30 mM acetate pH 4 containing 5 % sucrose and 1 % benzylic alcohol) either by daily subcutaneous bolus injection or by continuous subcutaneous infusion in the scapular region over 35 days. Continuous infusion was applied by Alzet osmotic pumps model 1002 for week 1-2, followed by model 1004 for week 3-5. CNP-38 concentrations in the pumps were adjusted for the mean animal weight at study day 7 (pump model 1002) or study day 25 (pump model 1004). Growth was determined at d 35 by total body length measurement and X-ray measurements of the right femur and tibia.

recombinant human NEP = recombinant human NEP (Homo sapiens, UniProt P08473); settings: pH 7.4
recombinant human NEP, sequence (P08473 whole entry): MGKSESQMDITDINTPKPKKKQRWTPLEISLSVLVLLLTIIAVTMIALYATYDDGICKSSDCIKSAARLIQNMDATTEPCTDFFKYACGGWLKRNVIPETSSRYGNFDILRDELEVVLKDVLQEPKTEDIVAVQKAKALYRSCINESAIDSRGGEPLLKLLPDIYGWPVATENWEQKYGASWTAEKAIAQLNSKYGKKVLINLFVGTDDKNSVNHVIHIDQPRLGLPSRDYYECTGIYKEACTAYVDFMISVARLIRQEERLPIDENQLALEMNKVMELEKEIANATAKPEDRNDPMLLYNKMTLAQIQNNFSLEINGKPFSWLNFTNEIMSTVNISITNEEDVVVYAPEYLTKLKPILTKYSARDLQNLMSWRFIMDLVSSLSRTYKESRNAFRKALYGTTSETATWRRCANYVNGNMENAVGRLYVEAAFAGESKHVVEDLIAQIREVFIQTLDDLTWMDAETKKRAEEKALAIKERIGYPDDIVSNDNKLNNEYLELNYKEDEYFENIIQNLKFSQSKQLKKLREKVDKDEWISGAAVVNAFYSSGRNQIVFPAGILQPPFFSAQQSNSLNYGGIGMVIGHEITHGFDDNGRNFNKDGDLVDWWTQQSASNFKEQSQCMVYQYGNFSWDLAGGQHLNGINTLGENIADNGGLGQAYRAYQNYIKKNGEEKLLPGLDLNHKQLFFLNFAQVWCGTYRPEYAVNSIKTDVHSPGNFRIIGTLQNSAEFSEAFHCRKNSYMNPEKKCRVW
From the text: Samples were taken at different time intervals. […] The resulting reaction products were assigned using HPLC-MS.

[1] = molecular target: T1, natriuretic-peptide receptor B (NPR-B) expressed endogenously on NIH-3T3 cells (Murine Embryo Fibroblast cell … (murine, UniProt Q6VVW5 17-1047)); test: cell-based or functional assay
T1 sequence (looked up): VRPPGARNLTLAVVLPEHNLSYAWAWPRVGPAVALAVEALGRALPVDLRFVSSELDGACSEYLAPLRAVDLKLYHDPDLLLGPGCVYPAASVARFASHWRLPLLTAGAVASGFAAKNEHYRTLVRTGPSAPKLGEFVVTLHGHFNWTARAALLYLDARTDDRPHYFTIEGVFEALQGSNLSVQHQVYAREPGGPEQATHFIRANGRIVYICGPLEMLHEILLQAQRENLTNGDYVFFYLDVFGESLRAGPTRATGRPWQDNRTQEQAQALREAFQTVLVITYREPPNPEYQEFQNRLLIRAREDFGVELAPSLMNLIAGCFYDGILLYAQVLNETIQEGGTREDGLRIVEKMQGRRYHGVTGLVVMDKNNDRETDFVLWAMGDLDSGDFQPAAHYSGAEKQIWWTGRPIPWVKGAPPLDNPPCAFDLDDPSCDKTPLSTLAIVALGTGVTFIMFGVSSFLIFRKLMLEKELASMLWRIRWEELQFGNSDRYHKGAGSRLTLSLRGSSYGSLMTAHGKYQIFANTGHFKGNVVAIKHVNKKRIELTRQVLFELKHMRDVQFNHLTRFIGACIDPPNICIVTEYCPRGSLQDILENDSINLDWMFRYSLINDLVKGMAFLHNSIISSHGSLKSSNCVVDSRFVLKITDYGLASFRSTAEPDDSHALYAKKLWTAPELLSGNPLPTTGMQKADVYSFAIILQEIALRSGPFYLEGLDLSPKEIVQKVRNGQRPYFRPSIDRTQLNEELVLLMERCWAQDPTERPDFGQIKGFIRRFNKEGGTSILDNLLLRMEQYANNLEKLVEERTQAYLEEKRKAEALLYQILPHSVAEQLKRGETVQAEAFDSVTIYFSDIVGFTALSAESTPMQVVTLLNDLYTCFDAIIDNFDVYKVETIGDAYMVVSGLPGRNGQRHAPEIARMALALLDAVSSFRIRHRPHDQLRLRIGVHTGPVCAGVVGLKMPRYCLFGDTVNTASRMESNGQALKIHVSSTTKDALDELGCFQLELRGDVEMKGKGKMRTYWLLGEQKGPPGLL

What does the source list for “CNP-38: CNP-38 SEQ ID No:24, LQEHPNARKYKGANKKGLSKGCFGLKLDRIGSMSGLGC, obtained from CASLO ApS (disulfide 22-38)”?
total body lenght compared to vehicle treated animals (wild-type FVB male mice; continuous subcutaneous infusion): 121.7%; total body lenght compared to vehicle treated animals (wild-type FVB male mice; daily subcutaneous bolus injection): 110.2%; half life norm. (recombinant human NEP): 12.10 h

B1: permanent Lys26 CNP-38 PEG 5 kDa conjugate 19e (peptide)
peptide: LQEHPNARKYKGANKKGLSKGCFGLKLDRIGSMSGLGC
modifications: 5 kDa PEG stably attached at the side chain of Lys26 through a maleimido hexanoyl group; disulfide bridge between Cys22 and Cys38
B1 was tested. Which “Residual Activity [%] (cGMP TR-FRET in NIH-3T3 cells, by EC50 against non-PEGylated CNP-38)” value [1] did it give?
The value was < 1%.

B2: permanent Lys26 CNP-38 PEG4x10 kDa conjugate 12g (peptide)
peptide: LQEHPNARKYKGANKKGLSKGCFGLKLDRIGSMSGLGC
modifications: disulfide 22-38; not fully specified (residue 26)
B2 was tested. Which “Residual Activity [%] (cGMP TR-FRET in NIH-3T3 cells, by EC50 against non-PEGylated CNP-38)” value [1] did it give?
Its value is < 1%.

B3: permanent N-terminal CNP-38 PEG 5kDa conjugate 15e (peptide)
peptide: {PEG 5 kDa-Hexanoyl(6-maleimido)}-LQEHPNARKYKGANKKGLSKGCFGLKLDRIGSMSGLGC
modifications: disulfide 22-38
How did the “Residual Activity [%] (cGMP TR-FRET in NIH-3T3 cells, by EC50 against non-PEGylated CNP-38)” value [1] turn out when B3 was run?
The value was 14%.
